{
  "source": "paper PMC8121815",
  "about": "(Nature Communications, 2021)",
  "assay_in_all_cases": "ITC",
  "key": {"[1]": {"molecular_target": "hTOM70 mutant H583Q (human)"}, "[2]": {"molecular_target": "human TOM70 (106-608) D545A, C-terminal His-tagged (human) (UniProt O94826)"}, "[3]": {"molecular_target": "human TOM70 (106-608) E477A, C-terminal His-tagged (human) (UniProt O94826)"}, "[4]": {"molecular_target": "human TOM70 (106-608) E549A, C-terminal His-tagged (human) (UniProt O94826)"}, "[5]": {"molecular_target": "human TOM70 (106-608) E549I, C-terminal His-tagged (human) (UniProt O94826)"}, "[6]": {"molecular_target": "human TOM70 (106-608) H583Q, C-terminal His-tagged (human) (UniProt O94826)"}},
  "note": "pKd: −log10 of the molar value.",
  "data": [
    {"substance": "C-peptide (SARS-CoV-2 orf9b core sequence 44-70) (from UniProt P0DTD2 44-70)", "values": [
      {"measurement": "pKd", "setting": "[1]", "result": 6.00},
      {"measurement": "Ka", "setting": "[2]", "result": 20100, "unit": "M⁻¹"},
      {"measurement": "pKd", "setting": "[2]", "result": 4.30},
      {"measurement": "stoichiometry N", "setting": "[2]", "result": 1},
      {"measurement": "Ka", "setting": "[3]", "result": 3870, "unit": "M⁻¹"},
      {"measurement": "pKd", "setting": "[3]", "result": 3.59},
      {"measurement": "stoichiometry N", "setting": "[3]", "result": 0},
      {"measurement": "Ka", "setting": "[4]", "result": 43800, "unit": "M⁻¹"},
      {"measurement": "pKd", "setting": "[4]", "result": 4.64},
      {"measurement": "stoichiometry N", "setting": "[4]", "result": 1.5},
      {"measurement": "Ka", "setting": "[5]", "result": 93800, "unit": "M⁻¹"},
      {"measurement": "pKd", "setting": "[5]", "result": 4.97},
      {"measurement": "stoichiometry N", "setting": "[5]", "result": 1.7},
      {"measurement": "Ka", "setting": "[6]", "result": "1.01e+06", "unit": "M⁻¹"},
      {"measurement": "stoichiometry N", "setting": "[6]", "result": 1.5}
    ]}
  ]
}
